B1: I179A/H198P (protein, UniProt P0AEE3 1-355, looked up, variant I179A H198P)
Serine endoprotease DegS: MFVKLLRSVAIGLIVGAILLVAMPSLRSLNPLSTPQFDSTDETPASYNLAVRRAAPAVVNVYNRGLNTNSHNQLEIRTLGSGVIMDQRGYIITNKHVINDADQIIVALQDGRVFEALLVGSDSLTDLAVLKINATGGLPTIPINARRVPHIGDVVLAIGNPYNLGQTITQGIISATGRAGLNPTGRQNFLQTDASINPGNSGGALVNSLGELMGINTLSFDKSNDGETPEGIGFAIPFQLATKIMDKLIRDGRVIRGYIGIGGREIAPLHAQGGGIDQLQGIVVNEVSPDGPAANAGIQVNDLIISVDNKPAISALETMDQVAEIRPGSVIPVVVMRDDKQLTLQVTIQEYPATN
B2: D221A/H198P (protein, UniProt P0AEE3 1-355, looked up, variant D221A H198P)
Serine endoprotease DegS: MFVKLLRSVAIGLIVGAILLVAMPSLRSLNPLSTPQFDSTDETPASYNLAVRRAAPAVVNVYNRGLNTNSHNQLEIRTLGSGVIMDQRGYIITNKHVINDADQIIVALQDGRVFEALLVGSDSLTDLAVLKINATGGLPTIPINARRVPHIGDVVLAIGNPYNLGQTITQGIISATGRIGLNPTGRQNFLQTDASINPGNSGGALVNSLGELMGINTLSFAKSNDGETPEGIGFAIPFQLATKIMDKLIRDGRVIRGYIGIGGREIAPLHAQGGGIDQLQGIVVNEVSPDGPAANAGIQVNDLIISVDNKPAISALETMDQVAEIRPGSVIPVVVMRDDKQLTLQVTIQEYPATN
B3: H198P/P229A (protein, UniProt P0AEE3 1-355, looked up, variant H198P P229A)
Serine endoprotease DegS: MFVKLLRSVAIGLIVGAILLVAMPSLRSLNPLSTPQFDSTDETPASYNLAVRRAAPAVVNVYNRGLNTNSHNQLEIRTLGSGVIMDQRGYIITNKHVINDADQIIVALQDGRVFEALLVGSDSLTDLAVLKINATGGLPTIPINARRVPHIGDVVLAIGNPYNLGQTITQGIISATGRIGLNPTGRQNFLQTDASINPGNSGGALVNSLGELMGINTLSFDKSNDGETAEGIGFAIPFQLATKIMDKLIRDGRVIRGYIGIGGREIAPLHAQGGGIDQLQGIVVNEVSPDGPAANAGIQVNDLIISVDNKPAISALETMDQVAEIRPGSVIPVVVMRDDKQLTLQVTIQEYPATN
B4: Q187A/H198P (protein, UniProt P0AEE3 1-355, looked up, variant Q187A H198P)
Serine endoprotease DegS: MFVKLLRSVAIGLIVGAILLVAMPSLRSLNPLSTPQFDSTDETPASYNLAVRRAAPAVVNVYNRGLNTNSHNQLEIRTLGSGVIMDQRGYIITNKHVINDADQIIVALQDGRVFEALLVGSDSLTDLAVLKINATGGLPTIPINARRVPHIGDVVLAIGNPYNLGQTITQGIISATGRIGLNPTGRANFLQTDASINPGNSGGALVNSLGELMGINTLSFDKSNDGETPEGIGFAIPFQLATKIMDKLIRDGRVIRGYIGIGGREIAPLHAQGGGIDQLQGIVVNEVSPDGPAANAGIQVNDLIISVDNKPAISALETMDQVAEIRPGSVIPVVVMRDDKQLTLQVTIQEYPATN
B5: Q191A: DegS variant Q191A (protein)
chain: RSLNPLSTPQFDSTDETPASYNLAVRRAAPAVVNVYNRGLNTNSHNQLEIRTLGSGVIMDQRGYIITNKHVINDADQIIVALQDGRVFEALLVGSDSLTDLAVLKINATGGLPTIPINARRVPHIGDVVLAIGNPYNLGQTITQGIISATGRIGLNPTGRQNFLATDASINHGNSGGALVNSLGELMGINTLSFDKSNDGETPEGIGFAIPFQLATKIMDKLIRDGRVIRGYIGIGGREIAPLHAQGGGIDQLQGIVVNEVSPDGPAANAGIQVNDLIISVDNKPAISALETMDQVAEIRPGSVIPVVVMRDDKQLTLQVTIQEYPATN
modifications: left off: His6, N-terminal, state not stated
B6: I179A: DegS variant I179A (protein)
chain: RSLNPLSTPQFDSTDETPASYNLAVRRAAPAVVNVYNRGLNTNSHNQLEIRTLGSGVIMDQRGYIITNKHVINDADQIIVALQDGRVFEALLVGSDSLTDLAVLKINATGGLPTIPINARRVPHIGDVVLAIGNPYNLGQTITQGIISATGRAGLNPTGRQNFLQTDASINHGNSGGALVNSLGELMGINTLSFDKSNDGETPEGIGFAIPFQLATKIMDKLIRDGRVIRGYIGIGGREIAPLHAQGGGIDQLQGIVVNEVSPDGPAANAGIQVNDLIISVDNKPAISALETMDQVAEIRPGSVIPVVVMRDDKQLTLQVTIQEYPATN
modifications: left off: His6, N-terminal, state not stated
B7: D221A: DegS variant D221A (protein)
chain: RSLNPLSTPQFDSTDETPASYNLAVRRAAPAVVNVYNRGLNTNSHNQLEIRTLGSGVIMDQRGYIITNKHVINDADQIIVALQDGRVFEALLVGSDSLTDLAVLKINATGGLPTIPINARRVPHIGDVVLAIGNPYNLGQTITQGIISATGRIGLNPTGRQNFLQTDASINHGNSGGALVNSLGELMGINTLSFAKSNDGETPEGIGFAIPFQLATKIMDKLIRDGRVIRGYIGIGGREIAPLHAQGGGIDQLQGIVVNEVSPDGPAANAGIQVNDLIISVDNKPAISALETMDQVAEIRPGSVIPVVVMRDDKQLTLQVTIQEYPATN
modifications: left off: His6, N-terminal, state not stated
B8: F234A: DegS variant F234A (protein)
chain: RSLNPLSTPQFDSTDETPASYNLAVRRAAPAVVNVYNRGLNTNSHNQLEIRTLGSGVIMDQRGYIITNKHVINDADQIIVALQDGRVFEALLVGSDSLTDLAVLKINATGGLPTIPINARRVPHIGDVVLAIGNPYNLGQTITQGIISATGRIGLNPTGRQNFLQTDASINHGNSGGALVNSLGELMGINTLSFDKSNDGETPEGIGAAIPFQLATKIMDKLIRDGRVIRGYIGIGGREIAPLHAQGGGIDQLQGIVVNEVSPDGPAANAGIQVNDLIISVDNKPAISALETMDQVAEIRPGSVIPVVVMRDDKQLTLQVTIQEYPATN
modifications: left off: His6, N-terminal, state not stated
B9: P229A: DegS variant P229A (protein)
chain: RSLNPLSTPQFDSTDETPASYNLAVRRAAPAVVNVYNRGLNTNSHNQLEIRTLGSGVIMDQRGYIITNKHVINDADQIIVALQDGRVFEALLVGSDSLTDLAVLKINATGGLPTIPINARRVPHIGDVVLAIGNPYNLGQTITQGIISATGRIGLNPTGRQNFLQTDASINHGNSGGALVNSLGELMGINTLSFDKSNDGETAEGIGFAIPFQLATKIMDKLIRDGRVIRGYIGIGGREIAPLHAQGGGIDQLQGIVVNEVSPDGPAANAGIQVNDLIISVDNKPAISALETMDQVAEIRPGSVIPVVVMRDDKQLTLQVTIQEYPATN
modifications: left off: His6, N-terminal, state not stated
B10: N197A: DegS variant N197A (protein)
chain: RSLNPLSTPQFDSTDETPASYNLAVRRAAPAVVNVYNRGLNTNSHNQLEIRTLGSGVIMDQRGYIITNKHVINDADQIIVALQDGRVFEALLVGSDSLTDLAVLKINATGGLPTIPINARRVPHIGDVVLAIGNPYNLGQTITQGIISATGRIGLNPTGRQNFLQTDASIAHGNSGGALVNSLGELMGINTLSFDKSNDGETPEGIGFAIPFQLATKIMDKLIRDGRVIRGYIGIGGREIAPLHAQGGGIDQLQGIVVNEVSPDGPAANAGIQVNDLIISVDNKPAISALETMDQVAEIRPGSVIPVVVMRDDKQLTLQVTIQEYPATN
modifications: left off: His6, N-terminal, state not stated
B11: I232A: DegS variant I232A (protein)
chain: RSLNPLSTPQFDSTDETPASYNLAVRRAAPAVVNVYNRGLNTNSHNQLEIRTLGSGVIMDQRGYIITNKHVINDADQIIVALQDGRVFEALLVGSDSLTDLAVLKINATGGLPTIPINARRVPHIGDVVLAIGNPYNLGQTITQGIISATGRIGLNPTGRQNFLQTDASINHGNSGGALVNSLGELMGINTLSFDKSNDGETPEGAGFAIPFQLATKIMDKLIRDGRVIRGYIGIGGREIAPLHAQGGGIDQLQGIVVNEVSPDGPAANAGIQVNDLIISVDNKPAISALETMDQVAEIRPGSVIPVVVMRDDKQLTLQVTIQEYPATN
modifications: left off: His6, N-terminal, state not stated
B12: E230A: DegS variant E230A (protein)
chain: RSLNPLSTPQFDSTDETPASYNLAVRRAAPAVVNVYNRGLNTNSHNQLEIRTLGSGVIMDQRGYIITNKHVINDADQIIVALQDGRVFEALLVGSDSLTDLAVLKINATGGLPTIPINARRVPHIGDVVLAIGNPYNLGQTITQGIISATGRIGLNPTGRQNFLQTDASINHGNSGGALVNSLGELMGINTLSFDKSNDGETPAGIGFAIPFQLATKIMDKLIRDGRVIRGYIGIGGREIAPLHAQGGGIDQLQGIVVNEVSPDGPAANAGIQVNDLIISVDNKPAISALETMDQVAEIRPGSVIPVVVMRDDKQLTLQVTIQEYPATN
modifications: left off: His6, N-terminal, state not stated
B13: Q187A: DegS variant Q187A (protein)
chain: RSLNPLSTPQFDSTDETPASYNLAVRRAAPAVVNVYNRGLNTNSHNQLEIRTLGSGVIMDQRGYIITNKHVINDADQIIVALQDGRVFEALLVGSDSLTDLAVLKINATGGLPTIPINARRVPHIGDVVLAIGNPYNLGQTITQGIISATGRIGLNPTGRANFLQTDASINHGNSGGALVNSLGELMGINTLSFDKSNDGETPEGIGFAIPFQLATKIMDKLIRDGRVIRGYIGIGGREIAPLHAQGGGIDQLQGIVVNEVSPDGPAANAGIQVNDLIISVDNKPAISALETMDQVAEIRPGSVIPVVVMRDDKQLTLQVTIQEYPATN
modifications: left off: His6, N-terminal, state not stated

Test system: periplasmic domain of RseA
Assay: Cleavage of 35S-labeled RseA periplasmic domain by DegS variants
Assay type: biochemical, E. coli
Conditions: for YYF-stimulated cleavage activity relative to H198P parental enzyme / YYF-stimulated cleavage activity relative to wild type: with YYF; for YYF-stimulated cleavage activity relative to H198P parental enzyme: % of H198P parent; for YYF-stimulated cleavage activity relative to wild type: % of wild-type activity
[1] = WT background, compared to wild-type DegS

Molecule | YYF-stimulated cleavage activity relative to wild type (WT background) | YYF-stimulated cleavage activity, in words [1] | further results
B1 | – | – | YYF-stimulated cleavage activity relative to H198P parental enzyme (H198P background): ≥ 65%
B2 | – | – | YYF-stimulated cleavage activity relative to H198P parental enzyme (H198P background): ≥ 65%
B3 | – | – | YYF-stimulated cleavage activity, in words (H198P background, compared to H198P): more active than H198P
B4 | – | – | YYF-stimulated cleavage activity relative to H198P parental enzyme (H198P background): ≥ 65%
B5 | less than 2% | – | –
B6 | – | reduced YYF-stimulated cleavage activity compared to wild-type DegS | –
B7 | – | reduced YYF-stimulated cleavage activity compared to wild-type DegS | –
B8 | less than 2% | – | –
B9 | – | more active than wild-type DegS | –
B10 | less than 2% | – | –
B11 | less than 2% | – | –
B12 | ~ 10% | – | –
B13 | – | reduced YYF-stimulated cleavage activity compared to wild-type DegS | –

From paper PMC4351158 (Structure (London, England : 1993), 2015)
